In PMC11776367, “Biochemical and Structural Characterisation of a Bacterial Lactoperoxidase” (Chembiochem, 2024) one finds Km, kcat and kcat/Km data, which are given here for two molecules.

What all share (assay): purified protein
Holding throughout (settings): 0.5 mM H2O2, 50 mM KPi, 150 mM NaCl, pH 7.0, 25 °C

In data set [1] the test system is I.
The test system of data set [2] is COc1ccccc1O.
Substrate in data set [3]: COc1ccccc1O
The format is biochemical, cyanobacterium TDX16.

Substrate in data set [4]: COc1cccc(OC)c1O
The format is biochemical, cyanobacterium TDX16.

Substrate in data set [5]: I
The data set is classed as biochemical, cyanobacterium TDX16.

Turning to bovine LPO (Bos taurus), in data set [1], the Michaelis-Menten constant (Km) (in general, the substrate concentration at which the rate is half of its maximum) is on record as 14 mM; the kcat (as a rule, the maximal rate divided by the concentration of active sites) stood at 206 s⁻¹; the kcat/Km (usually the turnover number divided by the Michaelis constant) amounted to 15000 M⁻¹ s⁻¹. In data set [2], the Km was 22 mM, the kcat turned out to be 10 s⁻¹ and the catalytic efficiency (kcat/Km) is 500 M⁻¹ s⁻¹.

B1: CyanoPOX (cyanobacterium TDX16) (protein)
chain: AQNRTIDGTDNNLSHNVWGSTNQHLDRAGPAAYADGMSMPAGGSRPSARAVSNGIAAQTGSMLNDRMLSDWVWQWGQFLDHDLDLTDAASPAESFPIPVPMGDPFFDPFNTGTQTIGLSRSAYDPATGSVDARQQMNQITSWIDASNVYGSDMTRANALRTMSGGRLATSAGDLLPFNTGGLPNAGGTSPSLFLAGDVRSNEQSGLAAVHTLFVREHNRLADQIAAANPGMGDEDIYQQARKIVGAQMQIITYNEFLPALLGSAAPSPMSIGYDDSINPNIMNEFANACYRVGHTMLSPTILRLDNAGNVIPHGNLALQDAFFNPNRIINEGGIAPILKGLASQAMQEIDNKIVDDVRNFLFGPPGSGGLDLASLNIQRGRDHGLPDYNSTRVMMGLTSVSSFADISSDPAVQAALMSLYGTVNDIDLWVGALAEDHLAGSSVGELIAAVLGEQFTRLRDGDRYWYERDDFFVNNPSLLAELQATRLSDIIRRNSDITNIQDNVFLIPEPATLGLLMFGAAFLRKRRS
notes: Predicted protein 556 residues; synthetic codon-optimised gene, His-tagged (calculated 58 kDa), E. coli NEB10beta, monomer
As to B1, in data set [3], the Km came to 59 mM, the catalytic constant (kcat) was 135 s⁻¹ and the kcat/Km was determined as 2000 M⁻¹ s⁻¹. Also, in data set [4], the Km stood at 35 mM, the kcat was 620 s⁻¹ and the specificity constant (kcat/Km) turned out to be 18000 M⁻¹ s⁻¹. In data set [5], the Km worked out at 7 mM, the kcat was 885 s⁻¹ and the catalytic efficiency (kcat/Km) came to 126000 M⁻¹ s⁻¹.
